# B1: membrane-bound form of human PHEX (Homo sapiens) (protein)
# chain: MEAETGSSVETGKKANRGTRIALVVFVGGTLVLGTILFLVSQGLLSLQAKQEYCLKPECIEAAAAILSKVNLSVDPCDNFFRFACDGWISNNPIPEDMPSYGVYPWLRHNVDLKLKELLEKSISRRRDTEAIQKAKILYSSCMNEKAIEKADAKPLLHILRHSPFRWPVLESNIGPEGVWSERKFSLLQTLATFRGQYSNSVFIRLYVSPDDKASNEHILKLDQATLSLAVREDYLDNSTEAKSYRDALYKFMVDTAVLLGANSSRAEHDMKSVLRLEIKIAEIMIPHENRTSEAMYNKMNISELSAMIPQFDWLGYIKKVIDTRLYPHLKDISPSENVVVRVPQYFKDLFRILGSERKKTIANYLVWRMVYSRIPNLSRRFQYRWLEFSRVIQGTTTLLPQWDKCVNFIESALPYVVGKMFVDVYFQEDKKEMMEELVEGVRWAFIDMLEKENEWMDAGTKRKAKEKARAVLAKVGYPEFIMNDTHVNEDLKAIKFSEADYFGNVLQTRKYLAQSDFFWLRKAVPKTEWFTNPTTVNAFYSASTNQIRFPAGELQKPFFWGTEYPRSLSYGAIGVIVGHEFTHGFDNNGRKYDKNGNLDPWWSTESEEKFKEKTKCMINQYSNYYWKKAGLNVKGKRTLGENIADNGGLREAFRAYRKWINDRRQGLEEPLLPGITFTNNQLFFLSYAHVRCNSYRPEAAREQVQIGAHSPPQFRVNGAISNFEEFQKAFNCPPNSTMNRGMDSCRLW
# notes: expressed in transfected cells; host or cells: LLC-PK1 (porcine kidney cells)
# Experiments:
# PHEX = molecular target: T1, PHEX (Homo sapiens, UniProt P78562); details: applicants previous observation (17); cited from earlier work
# T1 sequence (P78562 1-749): B1 chain
# secPHEX = molecular target: T2, secPHEX (Homo sapiens, UniProt P78562); experiment: secPHEX activity with NEP-specific substrate and inhibitor; assay type: biochemical; details: thiorphan 10^−6 M, 10 μM substrate, 30 minutes
# T2 construct: pure soluble form of PHEX (secPHEX); made in house
# T2 sequence (P78562 46-749 limits assumed): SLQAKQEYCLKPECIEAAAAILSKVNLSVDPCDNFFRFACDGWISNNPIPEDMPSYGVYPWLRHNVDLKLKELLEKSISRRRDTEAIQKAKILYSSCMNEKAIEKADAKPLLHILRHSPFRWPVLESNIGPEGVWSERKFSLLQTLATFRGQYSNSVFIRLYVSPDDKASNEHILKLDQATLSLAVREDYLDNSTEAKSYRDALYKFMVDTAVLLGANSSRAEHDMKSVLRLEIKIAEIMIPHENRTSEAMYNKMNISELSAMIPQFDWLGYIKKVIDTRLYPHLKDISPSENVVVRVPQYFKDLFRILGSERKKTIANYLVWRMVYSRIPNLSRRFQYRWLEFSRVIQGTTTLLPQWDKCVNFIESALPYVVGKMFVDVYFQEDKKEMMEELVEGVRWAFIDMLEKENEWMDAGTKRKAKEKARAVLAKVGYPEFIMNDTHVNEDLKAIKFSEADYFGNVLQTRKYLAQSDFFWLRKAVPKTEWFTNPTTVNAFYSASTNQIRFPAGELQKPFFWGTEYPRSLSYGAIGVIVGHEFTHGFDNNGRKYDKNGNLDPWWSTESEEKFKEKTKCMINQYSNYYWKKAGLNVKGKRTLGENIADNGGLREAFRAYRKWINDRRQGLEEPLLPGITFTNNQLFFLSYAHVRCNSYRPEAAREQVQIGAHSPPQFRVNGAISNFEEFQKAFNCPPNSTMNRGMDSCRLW
# Description: (§1) FIG. 4 graphically illustrates the activity of PHEX in the presence of NEP-specific substrate and inhibitor. NEP, secPHEX and membrane-bound PHEX (mPHEX) activities were measured after 30 minutes of incubation in presence of either 10 μM Abz-DRRL-EDDnp (SEQ ID NO:8) (A) or 10 μM Abz-GFSDYK(Dnp)-OH (SEQ ID NO:3) (B). Fluorescence detection (AFU) at γem=420 nm and γex=320 nm was determined as described under the heading “Experimental Procedures” below. When present, thiorphan, a NEP-specific inhibitor, was at a concentration of 10^−6 M. Data are a compilation of three different experiments;
# (§2) The activities of membrane-bound PHEX and secPHEX were also compared with the NEP-specific substrate Abz-DRRL-EDDnp (SEQ ID NO:8) (46).
# [1] = molecular target: T3, membrane-bound PHEX (mPHEX) (Homo sapiens, UniProt P78562); experiment: Membrane-bound PHEX activity with NEP-specific substrate and inhibitor; assay type: biochemical; details: thiorphan 10^−6 M, 10 μM substrate, 30 minutes
# T3 construct: expressed in transfected cells; host or cells: LLC-PK1 (porcine kidney cells)
# Description: as §1, §2
# NEP = NEP activity with NEP-specific substrate and inhibitor; assay type: biochemical; details: thiorphan 10^−6 M, 10 μM Abz-DRRL-EDDnp, 30 minutes
# Description: as §1
# The human recombinant secPHEX was obtained following the procedure previously described (17, WO 00/50580). Purified secPHEX concentration was determined using the Bradford method (DC protein assay kit; Bio-Rad, Mississauga, ON, Canada). Membrane-bound recombinant human PHEX was expressed in LLC-PK1 cells (17, (WO 00/50580)) and membranes were prepared essentially as described by Guo et al. (34). Briefly, transfected cells resuspended in lysis buffer (150 mM NaCl, 20 mM Tris.HCl, pH 7.6) were disrupted by sonication. […] Insoluble material was pelleted by centrifugation at 10,000 g for 15 min and protein concentrations of the supernatant determined using the Bradford method described above. PHEX amounts were evaluated by immunoblotting as described previously (17). […]
# Abz-DRRL-EDDnp = molecular target: T4, Abz-DRRL-EDDnp
# T4 chain: DRRL
# Abz-GFSDYK(Dnp)-OH = molecular target: T5, Abz-GFSDYK(Dnp)-OH
# T5 chain: GFSDYK
# [2] = substrate: Nc1ccccc1C(=O)NCC(=O)N[C@@H](Cc1ccccc1)C(=O)N[C@@H](CO)C(=O)N[C@@H](CC(=O)O)C(=O)N[C@@H](Cc1ccc(O)cc1)C(=O)N[C@@H](CCCCNc1ccc([N+](=O)[O-])cc1[N+](=O)[O-])C(=O)O; experiment: Hydrolysis by membrane-bound PHEX from transfected LLC-PK1 cells; assay type: biochemical, human; details: other: membrane-bound PHEX, 0.01 M Bis-Tris pH 5.5, 150 mM NaCl, 37° C.
# Description: FIG. 3 graphically illustrates hydrolysis of Abz-GFSDYK(Dnp)-OH (SEQ ID NO:3) by secPHEX and membrane-bound PHEX. Abz-GFSDYK(Dnp)-OH (SEQ ID NO:3) at a concentration of 10 μM was incubated at 37° C., in 0.01 M Bis-Tris buffer, pH 5.5 with 150 mM NaCl, containing 2,1 μg total proteins from membranes extracted from LLC-PK1 transfected with vector alone (notes as “A” on the figure), or 2,1 μg total proteins from membranes extracted from LLC-PK1 transfected with the membrane-bound form of human PHEX (noted as “□” on the figure); or 2,1 μg total proteins from membranes extracted from LLC-PK1 transfected with vector alone to which 500 ng purified secPHEX were added (noted as “o” on the figure). Fluorescence was monitored every 4 min for a period of 28 min. Amounts of secPHEX or membrane-bound PHEX (mPHEX) in the enzymatic reactions were evaluated by immunoblotting (Inset). Mock: cells transfected with vector alone;
# The human recombinant secPHEX was obtained following the procedure previously described (17, WO 00/50580). Purified secPHEX concentration was determined using the Bradford method (DC protein assay kit; Bio-Rad, Mississauga, ON, Canada). […] Insoluble material was pelleted by centrifugation at 10,000 g for 15 min and protein concentrations of the supernatant determined using the Bradford method described above. PHEX amounts were evaluated by immunoblotting as described previously (17). […]
molecule,measurement,setting,value
substance P,cleavage by PHEX,PHEX,could not cleave
O=C(O)CNC(=O)C(CS)Cc1ccccc1 (centres unmarked) [thiorphan],inhibition of cleavage of Abz-GFSDYK(Dnp)-OH,secPHEX,did not prevent cleavage
same,inhibition of cleavage of Abz-GFSDYK(Dnp)-OH,[1],did not prevent cleavage
same,inhibition of NEP activity,NEP,completely inhibited
B1,substrate hydrolysis (fluorescence),Abz-DRRL-EDDnp,Neither enzyme hydrolyzed this substrate
same,Km,Abz-GFSDYK(Dnp)-OH,"5×10^-6 M and 10×10^-6 M, for secPHEX and membrane-bound PHEX, respectively"
same,substrate hydrolysis (fluorescence),Abz-GFSDYK(Dnp)-OH,degradation of the substrate was observed
same,Km,[2],10 µM
